Assay results: publication PMC6400076 (Frontiers in Microbiology, 2019)

Key:
[1] = molecular target: T1, SpGAPDH (Streptococcus pyogenes, UniProt P68777)
T1 construct: gene gap

[2] = molecular target: T2, AvGAPDH (Fannyhessea vaginae, UniProt F1T6A5); format: biochemical
T2 construct: gene gap; recombinant, expressed and purified by similar protocols as previously described, homotetramer

[3] = system: O=C[C@H](O)COP(=O)(O)O; experiment: purified protein; conditions: 2 mM NAD+, 50 mM Pi, pH 8.5, 25°C
[4] = system: NC(=O)c1ccc[n+]([C@@H]2O[C@H](COP(=O)(O)OP(=O)(O)OC[C@H]3O[C@@H](n4cnc5c(N)ncnc54)[C@H](O)[C@@H]3O)[C@@H](O)[C@H]2O)c1; experiment: purified protein; conditions: 5 mM G3P, 50 mM Pi, pH 8.5, 25°C

T1 sequence (P68777 whole entry): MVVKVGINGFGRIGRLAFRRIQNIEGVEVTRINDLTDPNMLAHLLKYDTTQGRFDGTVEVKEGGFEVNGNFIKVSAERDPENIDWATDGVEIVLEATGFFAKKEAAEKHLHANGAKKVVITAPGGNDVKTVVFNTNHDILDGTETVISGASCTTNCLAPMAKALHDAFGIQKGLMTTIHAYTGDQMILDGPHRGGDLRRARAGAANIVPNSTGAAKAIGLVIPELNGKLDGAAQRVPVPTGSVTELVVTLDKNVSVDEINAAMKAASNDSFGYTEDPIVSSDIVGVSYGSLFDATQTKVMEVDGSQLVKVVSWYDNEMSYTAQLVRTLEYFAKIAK
T2 sequence (F1T6A5 entry or part of it): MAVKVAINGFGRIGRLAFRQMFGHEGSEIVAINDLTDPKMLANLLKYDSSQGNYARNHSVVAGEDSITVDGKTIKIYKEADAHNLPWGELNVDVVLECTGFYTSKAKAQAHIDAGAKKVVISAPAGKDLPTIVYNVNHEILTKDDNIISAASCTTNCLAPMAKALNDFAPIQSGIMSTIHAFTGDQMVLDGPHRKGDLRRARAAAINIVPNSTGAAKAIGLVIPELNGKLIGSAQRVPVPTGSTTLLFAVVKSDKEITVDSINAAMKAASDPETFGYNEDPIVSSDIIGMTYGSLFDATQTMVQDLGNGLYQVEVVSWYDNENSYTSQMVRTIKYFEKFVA

Which results are given for `CCCCCCCCCCCCCCCc1cccc(O)c1C(=O)O` [anacardic acid, 6-pentadecylsalicylic acid]?
Ki [1]: 3.3 ± 0.3 µM; Ki [2]: 1.25 ± 0.08 µM

What does the source list for `COc1cc(/C=C/C(=O)CC(=O)/C=C/c2ccc(O)c(OC)c2)ccc1O` [curcumin]?
Ki [1]: 38 ± 4 µM; Ki [2]: 39 ± 3 µM

What does the source list for “SpGAPDH (Streptococcus pyogenes MGAS8232)”?
Km [3]: 2800 ± 300 µM; Vmax [3]: 3.67e+06 µM/min/mg; kcat [3]: 6110 ± 260 s⁻¹; kcat/Km [3]: 2.18e+06 ± 320000 M⁻¹ s⁻¹; Km [4]: 280 ± 30 µM; Vmax [4]: 2.24e+06 µM/min/mg; kcat [4]: 3730 ± 100 s⁻¹
